From patent US20230213527A1, “COMPOSITIONS AND METHODS FOR POLYPEPTIDE ANALYSIS” (Quantum-Si Incorporated, priority 2021, published 2023)

Experiments:
[1] = molecular target: acetyl-lysine peptide of Example 6 (printed as RLK{acetyl}FIAYPDDD, SEQ ID NO: 826), state with N-terminal AK{acetyl}; test: single-molecule on-chip sequencing with PS691, PS610, PS961 and PS1165
[2] = molecular target: lysine peptide of Example 6 (printed as …, SEQ ID NO: 825), state with N-terminal AK; test: as above

PS1165, sequence (Q13490 other isoform, or with tags, fused parts or gaps): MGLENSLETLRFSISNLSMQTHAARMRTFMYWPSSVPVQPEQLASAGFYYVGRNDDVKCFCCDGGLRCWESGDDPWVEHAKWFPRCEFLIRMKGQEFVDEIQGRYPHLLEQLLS

RS mean PD [1]: 2.2 s
RS mean PD [2]: 1.3 s
Substance: PS1165 (from UniProt Q13490 250-361)
